Test results as given in patent US20030148958A1 (PROCTER AND GAMBLE, published 2003).
Ends that are not written are not given here.

T1: CRF2R
T1 sequence (Q13324 whole entry, species assumed, looked up): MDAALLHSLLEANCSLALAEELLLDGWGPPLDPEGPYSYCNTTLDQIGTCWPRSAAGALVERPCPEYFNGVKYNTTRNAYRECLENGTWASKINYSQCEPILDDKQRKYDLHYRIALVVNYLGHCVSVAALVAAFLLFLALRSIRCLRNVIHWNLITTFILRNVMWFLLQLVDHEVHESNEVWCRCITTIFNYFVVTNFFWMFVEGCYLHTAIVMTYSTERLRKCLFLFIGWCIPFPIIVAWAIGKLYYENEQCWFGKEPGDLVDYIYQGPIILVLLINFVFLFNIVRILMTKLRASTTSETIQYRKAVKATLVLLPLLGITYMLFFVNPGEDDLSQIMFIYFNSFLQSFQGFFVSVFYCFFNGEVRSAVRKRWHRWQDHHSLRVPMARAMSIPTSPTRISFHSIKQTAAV


Assays:
CRF1R = assay: cell-based or functional assay
CRF2R = biological target: T1, CRF2R; assay: cell-based or functional assay
Throughout, for CRF1R Emax %: reference of the scale not given here.
Throughout, for CRF2R Emax %: reference of the scale not given here.

| Binder | CRF1R EC50 (CRF1R) [nM] | CRF1R Emax % (CRF1R) [%] | CRF2R EC50 (CRF2R) [nM] | CRF2R Emax % (CRF2R) [%] |
| --- | --- | --- | --- | --- |
| DNPSLSIDLPLFLLRTLLELEKTQSQRERAEQNARIFARV-NH2 [SEQ ID NO 334] | 1000 | 82.6 | 13.2 | 93.5 |
| DNPSLSIDLPLLLLRTLLELEKTQSQRERAEQNAHIFAHV-NH2 [SEQ ID NO 328] | 1000 | 30.7 | 11.7 | 95.7 |
| PSLSIDLPLLLLRTLLELEKTQSQRERAEQNARIFARV-NH2 [SEQ ID NO 333] | 1000 | 43.8 | 9.85 | 96.9 |
| PSLSIDLPLFLLRTLLELEKTQSQRERAEQNARIFARV-NH2 [SEQ ID NO 331] | 1000 | 78.7 | 9.85 | 100 |
| PSLSIDLPLILLRTLLELEKTQSQRERAEQNARIFARV-NH2 [SEQ ID NO 332] | 1000 | 61.3 | 9.95 | 100 |
| DNPSLSIDLPLFLLRTLLELARTQSQRERAEQNARIFARV-NH2 [SEQ ID NO 329] | 1000 | 98.4 | 5.15 | 98.3 |
| DNPSLSIDLPLILLRTLLELARTQSQRERAEQNARIFARV-NH2 [SEQ ID NO 330] | 1000 | 86.8 | 6 | 93.7 |

Other lines, results leading:

| CRF1R EC50 (CRF1R) [nM] | CRF1R Emax % (CRF1R) [%] | CRF2R EC50 (CRF2R) [nM] | CRF2R Emax % (CRF2R) [%] | Binder |
| --- | --- | --- | --- | --- |
| 1000 | 19.6 | 20.2 | 92.2 | DNPSLSIDLPLQLLRTLLELEKTQSQRERAEQNAIIFASV-NH2 [SEQ ID NO 342] |
| 1000 | 49.5 | 28.1 | 91 | DNPSLSIDLPLILLRTLLELEKTQSQRERAEQNARIFARV-NH2 [SEQ ID NO 335] |
| 850 | 82.3 | 8.83 | 95.5 | DNPSLSIDLPLLLLRTLLELEKTQSQRERAEQNARIFARV-NH2 [SEQ ID NO 341] |
| 1000 | 41.1 | 19.3 | 77.5 | DNPSLSIDLPLLLLRTLLELEKTQSQRERAEQNARIFDRV-NH2 [SEQ ID NO 338] |
| 1000 | 36.5 | 23.9 | 86.7 | DNPSLSIDLPLILLRTLLELEKTQSQRERAEQNARIFDRV-NH2 [SEQ ID NO 337] |
| 740 | 96 | 7.99 | 100 | DNPSLSIDLPLLLLRTLLELARTQSQRERAEQNARIFARV-NH2 [SEQ ID NO 340] |
| 1000 | 13.2 | 100 | 47.9 | DNPSLSIDLPQYLLRTLLELARTQSQRERAEQNAIIFASV-NH2 [SEQ ID NO 339] |
| 1000 | 59.9 | 17.8 | 100 | DNPSLSIDLPLFLLRTLLELEKTQSQRERAEQNARIFDRV-NH2 [SEQ ID NO 336] |
